B1: TPR t1 (parent)
chain: GACCAAUCUGCCCUCAGAGCUCGAGAACAUCUUCGGAUGCAGAGGAGGCAGGCUUCGGUGGCGCGAUAGCGCCAACGUCCUCAACCUCCAAUGCAUCCCACCACAUGAUGAUGCCUGAAGAGCCUUGGUUUUUUG

Variants of: B1
Assay: polymerase ribozyme fitness, log enrichment relative to wild type (log ratio); higher = more active; in vitro selection for triplet polymerase activity
Outline: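 In triplicate, a single round of in vitro selection was run on each mutant library, PCR-built and transcribed, covering one subunit of a heterodimeric triplet polymerase ribozyme. Frozen incubation at −7 °C followed annealing with a biotinylated primer, partner subunit and triplets, and extended constructs were then gel-excised, streptavidin-captured and taken through RT-PCR. Fitness is the logarithm of genotype enrichment over wild-type enrichment, from inverse-variance-weighted replicate averages of Illumina-sequenced inputs and outputs. […] only genotypes with ≥10 input reads and ≥1 read per output were kept.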

In order of rising “polymerase ribozyme fitness (log ratio)” value:
1. GACCAAUCUGCCGUCAGAGCUCGAGAACAUCUUCGGAUGCAGAGGAGGCAGGCUUCGGUGGGGCGAUAGCGCCAACGUCCUCAACCUCCAAUGCAUCCCACCACAUGAUGAUGCCUCAAGAGCCUUGGUUUUUUG [C13G C62G G117C]  -8.19
2. GACCAAUCUGCCCUCAGAGCUCGAGAACAUCUUCGGAUGCAGAGGAGGCAAGCUUCGGUGGCGCGAUAGCGCCAACGUCCUCAACCUCCAAUGCAUCCUACCACAUGAUGAUGCCUGAAGAGCCUUGGUUUUUUG [G51A C99U]  -7.64
3. GACCAAUCUGCCCUCAGACCUCGGGUACAUCUUUGGAUGCAGCGGAGGCAGGCUUCGGUGUCGCGAUAGCGCCAACGUCCUCAACCUCCAAUGCAUCCCACCACAUGAUGAUGCCUGAAGAGGCUUGGUUUUUUG [G19C A24G A26U C34U A43C G61U C123G]  -7.57
4. GACCAAUCUGCCCUCAGAGCUCGAGAGCAUCUUCGGAUGCAGAGGUGGCAGGCUUCGGUGGCGCGAUAGCGCCAACGUCCUCAACCUCCAAUGCAUCCCACUACAUGAUGAUGCAUGAAAAGCCUUGGUUUUUUG [A27G A46U C102U C115A G120A]  -7.01
5. GACCAAUCUGCCCUCAGAGCUCUAGAACAUCUUCGGAUGCAGAGGAGGCAAGCUUCGGUGGCGCGAUAGAGCCAACGUCCUCAACCUCCAAUGCAUCCCAACACAUGAUAAUGACUGAAGAGCCUUGGUUUUUUG [G23U G51A C70A C101A G110A C114A]  -6.74
6. GACCAAUCUGCCCUCAGAGCUCGAGAACAUCUUCGGAUGCAUAGGAGGCAGUCUUCGGUGGCGCGAUAGCGCCAACGUCCUCAACCUCCAAUGCAUCCCACCACCUGAUGAUGCCUGAAGAGCCUUGGUUUUUUG [G42U G52U A105C]  -6.66
7. GACCAAUCUGCCCUCAGAGCUCGAGAACAUCUUCGGAUGGAGAGGAGGCAAGCUUCGGUGGCGCGAUGGCGCCAACGUCCUCAACCUCCAAUGCAUCCCACCACAUGAUGAUGCCUGAAGAGCCUUGGUUUUUUG [C40G G51A A68G]  -6.59
8. GACCAAUCUUCCUUCAGAGCUCGAGAACAUCUUCGGAUGCAGAGGAGGCAGGCUUCCUUGGCGCGAUAGCGCCAACGUCCUCAACCUUCAAUGCAUCCCACCACAUAAUGAUGCCUGAAGAGUCUUGGUUUUUUG [G10U C13U G57C G58U C88U G107A C123U]  -6.52
9. GAACAAUCUGCCGUCAGAGCUCGAGAAAAUCUUCGGAUGCAGAGGAGGCAUGCUUCGGUGGCGCGAUAGCCCCAACGUCCUCAACCUCCAAUGCAUCCCACCACAUGAUUAUGCCUGAAGAGCCUUGGUUUUUUG [C3A C13G C28A G51U G71C G110U]  -6.35
10. GACCAAUCUGCCCUCAGAGCUCGAGAACAUCUUCGGAUGCAGAGGAGGCAGGCUUCGGUGCCGCGAUAGCGCCAACGUCCUCAACCUUCCAUGCAUCCCACCACAUGAUUAUGCCUGAAGAGCCUUGGUUUUUUG [G61C C88U A90C G110U]  -5.87
11. GACCAAUCUGCCCUCAGAGCUCGAAAACAUCUUCGGAUGCAGAGGAAGCAGGCUUCGGUGGCGCGAUAGCGGCAAUGUCCUCAACCGCCAAUGCAUCCCACCACAUGAUGAUGGCUGAAGAGCCUUGGUUUUUUG [G25A G47A C72G C76U U87G C114G]  -5.41
12. GACCAAUCUGCCCUCAGAGGUCGAGAACAUCUUCGGAUGCAGAGGAGGCAGGCUUCGGUGGCGCGAUAGCGCCAAUGUCCUCAACCUCCAAUCCGUCCCACCACAUGAUGAUGCCUGAAGAGCAUUGGUUUUUUG [C20G C76U G93C A95G C124A]  -4.72
13. GACCAAUCUGCCCUGUGAGCUCGAGAACAUCUUCGGAUGCAGAGGAGGCAGGCUUCGGUGGCGCGAUACCGCCAACGUCCUCAACCUCCAAUGCAUCCCACCACAUGAUGAUGCCUGAAGAGCCUUGGUUUUUUG [C15G A16U G69C]  -4.45
14. GACCAAUCUGCCCUCAGAGCUCGAGAACAUCUUCGGAUGCAGAAGAGGCAGGCUUCGGUGGAGCGAUAGCGCCAACGUCCUCAACCUCCAAUGCAUCCCACCACAUGAUGGUGCCUGAAGAGCCUUGGUUUUUUG [G44A C62A A111G]  -3.93
15. GACCAAUCUGCCCUCAGAGCUCGAGAACAUCUUCGGAUGCAGAGGAGGCAGGCUUCGGUGGCGCGAUAGCGCCAACGUCCUCAACCUCCAAUGCAUCCUACCACAUGAUGAUGCCUGAAGAGCCUUGGUUGUUUG [C99U U131G]  -3.59
16. GACCAAUCUGCCCUCAGAGCUCGAGAACAUCUUCGGAUGCAGAGGAGGCAGGCUUCGGUGGCGCGAUAGAGCCAACGUCCUCAAUCUCCAAUGCAUCCCACCACAUGAUGAUACCUGAAGAGCCUUGGUUUUUUG [C70A C85U G113A]  -3.33
17. GACCAAUCUGCCCUCAGAGCUCGAGAACAUCUUCGGAUGCAGAGGAGGUAGGCUUCGGUGGCGCGAUAGCGCCAACGUCCUCAACCUCCAAUGCAACCCACCACAUGAUGAUGCCUGAAGAGCCUUGGUUUUUUG [C49U U96A]  -3.17
18. GACCAAUCUGCCCUCAGAGCUCGAGGACGUCUUCGGAUGCAGAGGAGGCAGGCUUCGGUGGCGCGAUAGCGGCAACGACCUCAACCUCCAAUGCAUCCCACCACAUGAUGAUGCCUGUAGAGCCUUGGUUUUUUG [A26G A29G C72G U78A A118U]  -3.07
19. GACCAAUCUGCCCUCAGAGCUCGAGAACAUCUUCGGAUGCAGCGGUGGCAGGCUUCGGUGGCGCGAUAGCGCCAACGUCCUCAACCUCCAAUGCAUCCCACCACAUGAUGAUGCCUGAAGAGCCUUGGUUUUUUG [A43C A46U]  -2.91
20. GACCAAUCUGCCCUCAGAGCUCGAGAACAUCUUCGGAUGCAGAGGAGGCCGGCUUCGGUGGGGCGAUAGCGCCAACGUCCUCAACCUCCAAUGCAUCCCACCACAUGAUGAUGCCUGAAGAGCCUUGGUUUUUUG [A50C C62G]  -2.66
21. GACCAAUCUGCCCUCAGAGCUCGAGAGCAUCUUCGGAUGCAGAGGAGGCAGGCCUCGGUGGCGCGAUAGCGCCAACGUCUUCAUCCUCCAAUGCAUCCCACCACAUGAUGAUGCCUGAAGAGCCUUGGUUUUUUG [A27G U54C C80U A84U]  -2.61
22. GACCAAUCUGCCCACAGAGCUCGAGAACAUCUUCGGAUGCAGAGGAGGCAGGCUUCGGUGGCGCGAUAGCGCCAACGUCCUCAACCUCCAAUGCAUCCCACCACAUGAUGAUGCCUGAAGAGCCAUGGUUUUUUG [U14A U125A]  -2.3
23. GACGAAUCUGCCCUCAGAGCUCGAGAACAUCUUCGGAUGCAGAGGAGGCUGGCUUCGGUGUCGCGAUAGCGCCAACGUCCUCAACCUCCAAUGCAUCCCACCACAUGAUGAUGCCUGAAGAGCCUUGGUUUUUUG [C4G A50U G61U]  -2.2
24. GACCAAUCUGCCCUCAGAGCUCGAGAAGAUCUUCGGAUGCAGACGAGGCAGUCUUCGGUGGCGCGAUAGCGCAAACGUCCUCAACCUCCAAUGCAUCCCACCACAUGAUAAUGCCUGAAGAGCCUUGGUUUUUUG [C28G G44C G52U C73A G110A]  -2.09
25. GACCAAUCUGCCCUCAGAGCUCGAGAACAUCUUCGGAUGCAGAGGAGGCAGGCUUCGGUGGCGCGAUAGCGCCAACGUCCUCAACCUCCAAUGGAUCCCACCACAUGAUGAUGCCUGAAGAGCCUUGGUUGGUUG [C94G U131G U132G]  -1.88
26. GACCAAUUUGCCCUCAGAGCUCGAGAACAUCUUCGGAUGCAGAGGAGGCAGGCUUCGGUGGCGCGAUAGCGCCAACGUCCUCAACCUCCAAUGCAUCCCACCACAUGAUGAUGGCUGAAGAGCCUCGGUUUUUUG [C8U C114G U126C]  -1.85
27. GACCAAUCUGCCCUCAGAGCUCGAGAACAUCUUCGGAUGCAGAGGAGGCAGGCUUCGGUGGCGCGAUAGCGCCAACGUCCUCGACCUCCAAUGCAUUCCACCACAUGAUGAUGCAUGAAGAGCCUUGGUUUUUUC [A83G C97U C115A G135C]  -1.7
28. GCCCAAUCUGUCCUUAGAGCUCGAGAACAUCUUCGGAUGCAGAGGAGGCAGGCUGCGGUGGCUCGAUAGCGCCAACGUCCUCAACCUCCGAUGCAUCCCACCACAUGAUGAUGCCUGAAGGGCCUUGGUUUUUUG [A2C C11U C15U U55G G63U A90G A121G]  -1.56
29. GACCAAUCUGCCCUCAGAGCUCGAGAACAUCUUCGGAUGAAGAGGAGACAGGCUACGGUAGCGCGAUAGCGCCAACGUCCUCAACCUCCAAUGCGUCCCACCACAUGAUGAUGCCUGAACAGCCUUGGUUUUUUG [C40A G48A U55A G60A A95G G120C]  -1.53
30. GACCAAUCUGCCCUCAGAGCUCGAGAACAUCUUCGGAUGCAGAGGAGGCAGGCUUCGGUGGCGCGAUAGCGUCAACGUCCUCAAUCUCCAAUGCAUCCCACCACAUGAUGAUGCCUGAAGAGCCUUGGUUUUUUG [C72U C85U]  -1.48
31. GACCAAUCUGCCCUCAGAGCUCGGGAACAUCUUCGGAUGCAGAGGAGGCAGGCUUCGGUGGCGCGAUAGCGCCAACGUCCUCAACCUCCAAUGCAUCCCACCACAUGAUGAGGCCUGAAGAGCCUUGGUUUUUUG [A24G U112G]  -1.29
32. GACCAAUCUGCCCUCAGAGCUCGAGAACCUCUUCGGAUGCAGAGGAGGCAGGCUUCGGUGGCGCGAUAGCGCCAACGUCCUCAGCCACCAAUGCAUCCCACCAUAUGAUGAUGCCUGAAGAGCGUUGGUUUUUUG [A29C A84G U87A C104U C124G]  -1.28
33. GACCAAUCUGCCCUCAGAGCUCGAGAACAUCUUCGGAUGCAGAGGAGGCAGGCUUCGGUGGCGCGAUAGCUCCAACGUCCUCAACCUCCAAUUCAUCCCACCACAUGAUGAUGCCUGAAGAGCCUUGGUUUUUUG [G71U G93U]  -0.956
34. GACCAAUCUGCCCUCAGAGCUCGAGAACAUCUUCGGAUGCAGAGGAGGCAGGCUUCGGUGGCGCGAUAGCGCCAACGUCCUCAACCUUCAAUACAUCCCACCACAUGAUGAUGCCUGAAGAGCCUUGGUUUUUUG [C88U G93A]  -0.936
35. GACCAAUCUGCCCUCAGAGCUCGAGAACAUCUUCGGAUGCAGAGGAUGCAGGCUUCGGUGGCGCGAUAGCGCCAACGUCCUCAACCUCCAAUGCAUCCCACCACAUGAUGAUGCCUGAAGAGCAUUGGUGUUUUG [G47U C124A U130G]  -0.902
36. GACCAAUCUGCCCUCAGAGCUCGAGAACAUCUUCGGAUGCAGAGGAGGCAGGCUUCCGUGGUGCGAUAGCGCCAACGUCCUCAACCUCCAAUGCAUCCCACCACAUGAUGAUGCCUGAAGAGCCUUGGUUUUUUG [G57C C62U]  -0.549
37. GACCAAUCUGCCCUCAGAGCUCGAGAACAUCUUCGGAUGCAGAGGAGGCAGGCUUCGGUGGCGCGAUAGCGCCAACGACCUCAACCUCCAAUGCAUCCCACCACAUGAUGACGCCUGAAAAGCCUUGGUUUUUUG [U78A U112C G120A]  -0.475
38. GACCAAUCUGCCAUCAGAGCUCGAGAACAUCUUCGGAUGCAGAGGAGGCAGGCUUCGGUGACGCGAUAGCGCCAACGUCCUUAACCUCCAAUGCAUCCCACCACAUGAUGAUGCCUGAAGAGCUUUGGUUUUUUG [C13A G61A C82U C124U]  -0.178
39. GACCAAUCUGCCCUCAGAGCUCGAGAACAUCUUCGGAUGCAGAGGAGGCAGGCUUCGGUGGCGCGAUAGCGCCAACGUCCUCAACCUCCAAUGAAUCCCACCACAUGAUGAUGCCUGAAGAGUCUUGGUUUUUUG [C94A C123U]  0.185
40. GACCAAUCUGCCCUCAGAUCUCGAGAACAUCUUCGGAUGCAGAGGAGGCAGGCUGCGGUGGCGCGAUAGCGCCAACGUCCUCAACCGCCAAUGCCUCCCACCACAUGAUGACGACUGAAGAGCCUUGGUUUUUUG [G19U U55G U87G A95C U112C C114A]  0.393
41. GACCAAUCUGCCCUCAGAGCUCGAGAACAUCUUCGGAUGCAGAAGAGGCAGGCUUCGGUGGCGCGAUAGCGCCAACGUCCUCAACCUCCAAUGCAUCCCACCACAUGAUGAUGCCUGAAGAGCAUUGGUUUUUUG [G44A C124A]  0.456
42. GACCAAUCUGCCCUCAGAGCUCGAGAACAUCUUCGGAUGCAGAGGGGGCAGGCUUCGGUGGCGCGAUAGCGCCAACGUCCUCAACCUCCGAUGCAUCCCACCACAUGAUGAUGCCUGAAGAGCCUUGGUUUUUUG [A46G A90G]  0.482

Reference: the RNAGym collection of RNA variant scans (doi:10.1073/pnas.2313332121)
